# According to the DeepSol protein solubility set:
# Experiment: soluble on expression in E. coli; label from the status in PepcDB or PDB records
row,Sequence,soluble on expression in E. coli
1,MATSAMFILDLKGKTIISRNYRGDIDMTAIDKFIHLLMEKEEEGSAAPVLTYQDTNFVFIKHTNIYLVSACRSNVNVTMILSFLYKCVEVFSEYFKDVEEESVRDNFVVIYELLDEMMDFGFPQTTESRILQEYITQEGQKLISAPRPPMAVTNAVSWRSEGIKYRKNEVFLDVIESVNMLASANGTVLQSEIVGSVKMRVYLTGMPELRLGLNDKVLFEGSGRGKSKSVELEDVKFHQCVRLSRFDTDRTISFIPPDGAFELMSYRLTTVVKPLIWIETSIERHSHSRVSFIIKAKSQFKRRSTANNVEIIIPVPSDADSPKFKTSIGSVKYTPEQSAFVWTIKNFPGGKEYLLTAHLSLPSVMSEESEGRPPIKVKFEIPYFTTSGIQVRYLKIIEKSGYQALPWVRYITQNGEYEMRMK,not soluble
2,MATSLDRDKEAVLRALRPYLEGTGTRLFLFGSFARGEGRQASDLDLALLSPVPLKDLMPLLREALEEAPVVRRVDLVDLAEAEPAFRERVLREGVLWAEF,soluble
3,MATTKPYRVLLYYMYTTIENPEEFAAEHLEFCNSLELKGRILVAKEGINGTCSGTVEQTEKYMEAMNNDPRFDGIVFKIDEADGHAFKKMHVRPRPELVTLRLEDDINPHEITGKYLEPKDFYEAMKQEDTVIIDARNDYEFDLGHFKGAIKPDIESFRELPDWIRENKEVLEGKKILTYCTGGIRCEKFSGWLVREGYEDVSQLHGGIVTYGKDPEVQGELWDGQCYVFDERIAVPVNQKEHVIVGKDHFTGEPCERYVNCANPECNKKILCSEENEAKYLRACSHECRVSPRNRYVIQHELTEEQVAAALEQIEAGKLEHHHHHH,not soluble
4,MATVTTHASASIFRPCTSKPRFLTGSSGRLNRDLSFTSIGSSAKTSSFKVEAKKGEWLPGLASPDYLTGSLAGDNGFDPLGLAEDPENLKWFVQAELVNGRWAMLGVAGMLLPEVFTKIGIINVPEWYDAGKEQYFASSSTLFVIEFILFHYVEIRRWQDIKNPGSVNQDPIFKQYSLPKGEVGYPGGIFNPLNFAPTQEAKEKELANGRLAMLAFLGFVVQHNVTGKGPFENLLQHLSDPWHNTIVQTFN,soluble
5,MAVARWLRDHSGPDDVVATNAHCRFAVSDSCDNRHFWISGYTERRVLVEGWGYTARTLASLTDVDREPMGAVPFWDAELLAANDAVFTAPTARAVDLLARRYGVRWLMVDRRRPLTAPDLGQFARLRYARGSFAVYSTLS,not soluble
6,MAVKFFGQFLVEKGVVSRETLLQAIELQESVNLSFGATSLAMGILTEADIERIHNAQRIEDLRFGDMAVKLGLLTSEQMMQVLTRQKNTHLYIGEALVKVGSFQADELPKYLEEFKADQAQYATDTVVIPTGVSEPKIWEMVADLSYKMLTRVALLVFRPEPCFVADRVPAMDVYATMDFTGDISGRYFMGVTAATQKKIAKAILKEPNVDNEPKEILDDTVMEFVNVALGNIAAKAAQSGKSMEIAPPEIIEAPDGIQVPDGHKALCFPVCLSDGDRIELAVFIQQLEHHHHHH,soluble
7,MAVNLLKKNSLALVASLLLAGHVQATELLNSSYDVSRELFAALNPPFEQQWAKDNGGDKLTIKQSHAGSSKQALAILQGLKADVVTYNQVTDVQILHDKGKLIPADWQSRLPNNSSPFYSTMGFLVRKGNPKNIHDWNDLVRSDVKLIFPNPKTSGNARYTYLAAWGAADKADGGDKGKTEQFMTQFLKNVEVFDTGGRGATTTFAERGLGDVLISFESEVNNIRKQYEAQGFEVVIPKTNILAEFPVAWVDKNVQANGTEKAAKAYLNWLYSPQAQTIITDYYYRVNNPEVMDKLKDKFPQTELFRVEDKFGSWPEVMKTHFTSGGELDKLLAAGRN,soluble
8,MAVPPTYVDLGKSARDIFTKGYGFGLIKLDLKTRSENGLEFKSSGSANTETSKVAGTLETKYKWAEHGLTFTEKWNTDNTLGTEITLEDQLTKGLKLTFDSSFSPNTGKKSGKIKSSYQREHINLGCDVDYDINGTAVHGALVLGLDGWLAGYQMTFEAGRNRITQSNFAVGYKTDEFQLHTNVNDGTEFGGSIYQKVNDNLETAVNLAWTAGNSNTRFGIAAKYQIDSDAAFSAKVNNSSLVGLGYTQTLKPGIKLTLSALLDGKNINAGGHKMGLGLEFEA,soluble
9,MAVPVQFRKPPMGGIGKKVAYYPGCSLEGAARAYDVSTRIVAKELGLELDYLEDYNCCGAMETKNVSFWGTMLLNARNMSLARRQGHNVIVAPCNGCSFSLQRVEYFLETDKNTLDRINQLLQEAGEKPLDNIPHTYHILEWFYHEAGPEKVKEKTKKPLRGLKVASYYGCLYTRPHFYARTYSHLAPEDEEQARPRKRETADDDEHPYYMEALLEAAGATSVEIEPMHTQCCGGPHSLSDEEVSEKFVMMILQTAKRNGADIIATECPLCHASLEMYRHRLMLKGVPDVDVPAAYFTQLLGLAFGYSVNDVKLKDNLSDPIPVLKRLGLA,not soluble
10,MAVTISGVRKHSPAYRHGIQAGERLLTLNGNEIMDVLDYRFYQLNTALVLELENNRGERRTVSLKKPEYEEIGLEFETYLMDRQHSCKNKCVFCFIDQLPKGLRKSLYFKDDDSRLSFLFGNYVTLTNLTEHEISRIIKMHISPMNISVHTTNPELRVKMMKNPRAGEALSIIRRFAQAGIKINCQIVLCPGYNDGEELKRTLSDLETMCPQVQAVAVVPVGITRYRQNLPEMRSFTRETAGEAIDLIESFGEKCLQKYGTRVAYPGDEFYLKAERPLPPAGFYEDFSMLENGVGLLPLLMDEFYSALEEAGETGGRKREITIATGMAPREYIRGFLDDAIKKFPHISGRVTPIVNRFFGETITVSGLVTGTDLIEQLSSVDLGDELLIPACMLRREGDLFLDDVSLQDVEAALKVPVRPVPNDGYAFLDAILGSESLEHHHHHH,not soluble
11,MAVTQSPRNKVAVTGGKVTLSCNQTNNHNNMYWYRQDTGHGLRLIHYSYGAGSTEKGDIPDGYKASRPSQENFSLILELATPSQTSVYFCASGDLGQTNERLFFGHGTKLSVLGSADDAKKDAAKKDGQVRQSPQSLTVWEGETAILNCSYENSAFDYFPWYQQFPGEGPALLISILSVSDKKEDGRFTIFFNKREKKLSLHIADSQPGDSATYFCAAIDTNAYKVIFGKGTHLHVLP,soluble
12,MAYFIDRRLNGKNKSTVNRQRFLRRYKSQIKQSISEAINKRSVTDIESGESVSIPNADINEPMFHQGRGGHRHRVHPGNDHFVQNDKIERPQGGGGSGSGQGDASKDGEGDDEFVFQISKDEYLDLLFEDLALPNLKKTQHRQMTEYKMHRAGYTANGVPANISVVRSLQNSLARRMAMTAGKRRTLHELEESLEQLAYTEPAQLLEEERLREDIAELRKKIARVPFIDTFDLRYKNYERRAEPSSQAVMFCLMDVSGSMDQATKDMAKRFYILLYLFLSRNYKNVDVVYIRHHTQAKEVDEQEFFYSQETGGTIVSSALKLMEEVVRERYDPSQWNIYAAQASDGDNWADDSPLCHQILASKLLPMVRYYSYIEITRRSHQTLWREYETLRDTFDNFAMQHIRDQDDIYPVFRELFRKQTVGHLEHHHHHH,not soluble
13,MAYRDQPLGELALSIPRASALFRKYDMDYCCGGKQTLARAAARKELDVEVIEAELAKLAEQPIEKDWRSAPLAEIIDHIIVRYHDRHREQLPELILQATKVERVHADKPSVPKGLTKYLTMLHEELSSHMMKEEQILFPMIKQGMGSQAMGPISVMESEHDEAGELLEVIKHTTNNVTPPPEACTTWKAMYNGINELIDDLMDHISLENNVLFPRALAGE,not soluble
14,MAYRDRGMQKWQGMILSEHTEQLEQAKRKLSWLPQQSEECLVEILSYAVTKQHAITIQRLTEDENGYPLPFVVGRIVGVEDDRIYMRDMAGEITVLTFDDINHISEGTIEKWYR,not soluble
15,MAYVTLYPNLILEALGKVRYPGTGKDLVSAGMVEDDIRIDGNKVSFSLIFDKANDPFIKSVVKAAESAILTYISEDVNIKGNISVKSKQAIPAPPAKLLPGVKNIIAVFSGKGGVGKSTVTANLAVSLAKSGYRVGLLDADIFGPSMPKMFHCEESRPVLEEVDGRELIVPEEVMGVKILSIGFFVDPDNAVLWRGSMAGNALTQLIRDANWGELDYFLIDMPPGTSDIHLTLVQTLAITGAVVVTTPQDVALADARKGISMFVGEKINVPVLGLVENMSWFTPAELPQNKYYIFGRDGGKNLAEELNIPLLGQIPLVQGICQSGDEGIPVAVRDDSMMGIAFRELAARVVEQVDYRNEHLDPTKVVEVAHR,not soluble
16,MCAALKRCAYRHKGKIMENTNIVTTEQQAPNTISASNAIFNVQALGQLTAFANLMADSQVTVPAHLAGKPADCMAIVMQAMQWGMNPYAVAQKTHLVNGVLGYEAQLVNAVIASSSAIHGRFHYRYGGDWERCTRTQEITRDKNGKNGKYTVTERVRGWTDEDEIGLFVQVGAILRGESEITWGEPLYLSGVVTRNSPLWVSNPKQQIAYLGVKYWARLYCPEVILGVYSPDEVEQREEREINPAPVQRMSVQEITSEVSTRTSAQESAANVDAVADDLRERIDTASSVDQAKAIRADIESQKALLGTALFTELKNKAVKRYYQVNAQNKVEAVINSIPNPGEPEAAEMFAKAESTLGAAKRHLGDELHDKYRVTLDDMKPEYIG,not soluble
17,MCARIQQLPVFFIFILYGSCATTKRNIYVLAINKLMEQQIRKYESFNDLPADCKKLFDSGEKDSFDLSRDWFLLLETTVIRQTKEICIFTLEIEGVTQGIWPTLLQKKGKLSLRQISSFTCFYSSLYQPLISSSLTVDKLADCLRWILSDTRTDVLRFDIMDPSQSSFNLHEQALKKIGFKTDRFFCWGNWYLPVNNQPFSVYLQNLSSRVRNTLERRKKKFLAGGHGKLEILTTHDKLPIAIQAWEKIYNASWKIPEPYPEFMPSLISLCAAKGWLRLGIAYYDEEPIAAQLWIVNQGRAAIYKLAYDEKFAHLSPGTILTAHLMQHAIDVDKVHEVDYLTGDDAYKKDWMSHRRERLGLVAYNLRSFWGLIGISKHIAGKIRKKILKSLK,not soluble
18,MCGDCVEKEYPNRGNTCLENGSFLLNFTGCAVCSKRDFMLITNKSLKEEDGEEIVTYDPDLCKNCHHVIARHEYTFSIMDEFQEYTMLCLLCAKPKILSVFSLMTPDKLEHHHHHH,soluble
19,MCGKTILLEVTPCDNFVFNKSTNLTDTAYVTLKNISEKPVCFKVKTSVPNMYVSRPNPDLLKPGEARQLSVKFRSSDKVSLNAKSYKLKIESCEFESEDIDDLKSFWSSIPNEKILVHKSPIILGTGSSPDFRNDQIASESSRQSSPIQNVSDDGKSSHHSTAKQLQENNENSKSLKYTKQLVEVPLGENQQADQTGTTCDKKDEFQKKNQLEVEIKFVDKIHEIKSQLEDSFELKLKEMEMRLEEKFEKRISRLTQFMETISLSNSPGNSRRVFELDDNFSIVAKKELEQMRQDFEKVLDGQNKIAEEKMNELRKRREELQV,not soluble
20,MCGRFVLFTTDESLLGHPALRIFHSIHAPKGMPPARYNIAPTTIIPILRVGTTPTEAVIEPARWGLIPAWKREVTLPPLFNARAETVTTKPSFRQAFSTQRCAIPMDGYYEWHNKKPYWITTGAPTWVAGLWDSGAGMLSATMITTDSVAPLDWLHHRMPRFLNNDELAVWLRGSADEASGLLTPGDASAFHTSLADPSVGNIRNDYPELIDAPTDLFSL,not soluble
21,MCHKLPKTHNCTFFRKLSNWHSGILISLEQKVTGSIPARETVQLAQWYFDFFGAEGHGFNPREGNCPTGAGVYLTSLEQKVTGSIPAWENNFCLIC,not soluble
